Results reported in US7778779.

Molecular target: T1, 19-residue peptide comprising amino acids 788-806 of human HIF-1α, Q16665
T1 chain: DESGLPQLTSYDCEVNAPI

B1: FIH (Factor Inhibiting HIF), human (protein)
chain: MAATAAEAVASGSGEPREEAGALGPAWDESQLRSYSFPTRPIPRLSQSDPRAEELIENEEPVVLTDTNLVYPALKWDLEYLQENIGNGDFSVYSASTHKFLYYDEKKMANFQNFKPRSNREEMKFHEFVEKLQDIQQRGGEERLYLQQTLNDTVGRKIVMDFLGFNWNWINKQQGKRGWGQLTSNLLLIGMEGNVTPAHYDEQQNFFAQIKGYKRCILFPPDQFECLYPYPVHHPCDRQSQVDFDNPDYERFPNFQNVVGYETVVGPGDVLYIPMYWWHHIESLLNGGITITVNFWYKGAPTPKRIEYPLKAHQKVAIMRNIEKMLGEALGNPQEVGPLLNTMIKGRYN
**Q.** For B1, which “hydroxylation of the peptide (mass spectrometry of HPLC purified material)” value is on record?
**A.** a mass difference of +8Da of the doubly charged ions, corresponding to +16Da in the peptide (oxygen)
